This is an account of results in a protein production outcome set (Wang et al. 2014).

This series is described as follows: label from the status in PepcDB records.
As for “MKKRAVLILSMMLAAQAAFYTSSNTASAAIGEAVIATDEINVRSGPGLSHEIVSVVSRNESYPILEERGDWVQIQLNGGQKGWVVSWLIKKKSQVSSGSDSASGKVTSSEANLRIRKGPGTSYEVQGVFPEGEQADLLKTDGKWIKISYQNITGWVYSDYVNQGSGAKQSQSSSSHASSSKSGTVGVSTLNVRSTASHQGRIIATLQRNASVTILNEQHGWYEIEFNGQKGWAASHYILEGNKQNSGTSETSSSSEAKRQATIVYEGTNVRSGPSTSSAIVKRTGKGESYPIVSTKGDWYEIKLSNGDSAYVASWVVQTVDQAGSAGDSKSAAPPLAKRSSSGGTIKNKTVVIDAGHGGHDSGTIGTRGTLEKRLTIKTATLLAAKLRADGVNVYMTRNDDSFVSLQSRVATSHYRNADAFISIHYDSFPNASVRGNTAYYYSPSKDRKLAADVQSEIERHSPLPSRGVLFGDYFVLRENKQPAALFELGYLSHPQEEAVVSTNAYRERVTDGIRSGLENYFD”, the protein production entry is “failed”.

As for “MPHGVEVEPGVAKLTTYASKQATDMGAIYVNSKGDRIVNESNVYTTFRNAILKQADKVAYLVMDERTWKKVYDLLILHDFTPEEIKSFFENKGKRPVFVKGSLESAAEQAGIVVDELVQTVKNYQGYVQDGHDHDFGRDPKYLHQFEGETFYIIEQRLEHHHHHH”, the protein production entry is recorded as “not failed”.

Regarding “MFNKVIMVGRLTRNVELKYLPSGSAAATIGLATSRRFKKQDGTLGEEVCFIDARLFGRTAEIANQYLSKGSSVLIEGRLTYESWMDQTGKKNSRHTITADSLQFMDKKSDNPQANAMQDSIMHENSNNAYPANHNAPSQDPFNQAYAQNAYAKENLQAQPSKYQNSVPEINIDEEEIPF”, the protein production result is listed as “failed”.

For the sequence “MQDLNDIALFAAVVKHNGFSAAARDLNVPKSKLSKHVARLEEQLGVRLLERSTRKLRMTEVGRIFYEHAQGLLDGVAAAEAEIAAVRAEPTGVVRLACPIGFTPMLADILPAFHRRYPGVRLLITASNRRIDLIEERIDVALRARDQLDTDSQLIVRKFGEVRQRLAASPTLLARLGEITTDNLSQMPTLSMNEQHPNDVWRLVHATGGAIEIAHRPVVGCSDFLILERAAIEGMGIALLPDHICERAFRTGALVPVLPEWTSGNVMVHLVFPSRHGLLPATRALIDFLAENLIKALERCREVDPRPAASFEI”, the protein production result is “failed”.

“MTTQMPIASPRTEFYERAFGGFHDQAVAEVRKETYGEDLGQNDWSTVDEMRQFSQWLELSPQSHLLDVCSGSGGPALFLARNSGCRVTGVDLHPDALQTGRQLAQALELHDRSQFVECDVRQRMPFPDGTFDALWCIDSVIHIPDRLALLREWCRLLKPGGRFLYTDPTLVTGMVSKEEILLRGTPGYFLYTPIGLNERLIEQAGLRLDMQADLTHSITELSERWHAAREKRCAVLTATEGEEAFARMQSFLTATHRVSVEGRLSRWVFVGVRP”: the protein production entry is recorded as “failed”.

On to “QNNYLQSLEVQVMLDTLRVIHNPLQDYALVALMKSPMFGFDEDELARLSLQKAEDKVHENLYEKLVNAQKMASSQKGLIHTALAEKLKQFMDILASWRLYAKTHSLYDLIWKIYNDRFYYDYVGALPNGPARQANLYALALRADQFEKSNFKGLSRFIRMIDQVLEAQ”, for which the protein production entry is reported as “failed”.

As to “MVESWALTTPPIDIVNQYLFFIKRKTNYMATYYYALASQKFLLEEEPFEEVLKERRRDYGEKNKEIDFWQVIQPAFLNAPELAEAKAKAPEKNVAIVSTNKSFIVWVKLRLEYVLTGEFEAPSDAIPDPLASLDLEHHHHHH”, the protein production result was “failed”.

Take “MIRPEYLRVLRKIYDRLKNEKVNWVVTGSLSFALQGVPVEVHDIDIQTDEEGAYEIERIFSEFVSKKVRFSSTEKICSHFGELIIDGIKVEIMGDIRKRLEDGTWEDPVDLNKYKRFVETHGMKIPVLSLEYEYQAYLKLGRVEKAETLRKWLNERKG”: the protein production result is given as “not failed”.

On to “MDRIKSWEYDDVYNKFAIKDLDKSSFKRGSHIPIKVRKVFECEDIKYGDKKKITLIYKGEAFPAEIEGEIKGRIRMNWPKLIPKMKEVFKNEINDFEDSKELSVRVPRLKFTKETAIKYDVEMKTKYSHDVLCELERLDIDVENKTIEEINEVGEVIERVVKARKNQNKFREALFKRDGKCKICGLAHKELLIASHIKPWSKSTPEEKLNPFNGFLLCPNHDSLFDKHLISFKDNGEIIISKRLSEKEQELLSINKDIMINIEEGNKKFLKEHRDVFCKIEKAFDLEKELAISNKEIYNVELEV”, for which the protein production result was “failed”.

On to “MPELILKPCEPVRSALKQDVAALEAPPTGGNVDKSATTSNSVTPATSAAPSPAPASEKGEDKDKDSEKEKDKTSAEKSEVKQEQEAEEDKKPGDVKQENPVEEAAGDTKPSDAEVKTEVAKTEPKEETKDPEVKEEPKTEEKEKEKVDDKKPIPPTTVIDDDDDDVMIVKEDGELEKPSASSPKDQKAVAAATSAATGATGK”, for which the protein production result is “failed”.

As for “MNEYQIKFKEDCYYAENNAGKVIGELLYSKIKQGKVISINQVRVDPLFRNRGIAGKLLKKAVDDAVKNGQLIKAVCSFSKKAFLQNKNYQKYEYKEN”, the protein production entry is “failed”.

For “MPRMEALFNTVVPVALVVLSGYLLGRQLEMDLSTLSRLTLYALVPALILDSMYRAEYTLEGVWGLVLGFSLTYALLFLLVQGAGKLFGLSRETTKTLLVCGLFPNSGNMGLSLVYFALGEEGLRRAVVYFLLSSALMFGLGPAFIRGGSLKEGLLFTLRLPLFYALFLGLLLKALGLSLPFRLEEGVRLMGQAAIPVLLLTLGMQMGKTRFHLGPFEGAASALRLLLAPLVAYGVGALLGLPRLEHQVLVLQSATPVAVNAFLLTREFGGDALRVARSVVVSTFLAFLTVPLVLYLLGVR”, the protein production entry is “failed”.

With “MSRSDNGGEDKGLRITRREFLAAAGAGAAAFIVGAVVGSTAFPREKEVVKPGPTQTVTATATETATVTETQTQVQLVEKKYPKVKIANVSELREGQPVFKEYIGHRIVVIKLGEEAVNGVGPDKDIVAFSMLCTHMGGFLIFDGNTKTLICPLHFSQFDPSRGGQPVVGHATEYLPQVILEYDEASGDIFAVGFTALVYGRYDNLQGVKA”, the protein production result is “failed”.

Take “MPHRCAAQVVAGYRSTVSLVLVEHPRPEIAQITLNRPERMNSMAFDVMVPLKEALAQVSYDNSVRVVVLTGAGRGFSPGADHKSAGVVPHVENLTRPTYALRSMELLDDVILMLRRLHQPVIAAVNGPAIGGGLCLALAADIRVASSSAYFRAAGINNGLTASELGLSYLLPRAIGSSRAFEIMLTGRDVSAEEAERIGLVSRQVPDEQLLDACYAIAARMAGFSRPGIELTKRTLWSGLDAASLEAHMQAEGLGQLFVRLLTANFEEAVAARAEQRAPVFTDDT”: the protein production result is listed as “failed”.

For “MRNFFKKMVVLSVGCLTLPLWAQPHREGVQQKLQSLSVEQKIDLLCARYPGVPQEGLAKYDWWSECLHGVARAGKATVFPKPIGMGSTWDAELIHRIGIAIGDEARAKHHQDVREHGYSDRHYGLTFFSPTLNIARDPRWGRTTECFSEDPLLTSDMGVSFIKGMQGDDPYYLKTVATAKHFVANNEENRRLGGSAIVDEVSLREYYFPAFRDAVVRGYVKSIMGAYNALNGIPCCANSMLLTDVLRKEWGFEGVVISDGSAIDKLYTHHKYVPNLEEGAALALRAGCDMSLRDEYRPGLKKAYHKGLITEHDLNVAVARVLDLRARLGLDKGTDQGNPYKNTPYSVVECERHQQLALEAAEKSMILLKNEGVLPLKPDASKRKLNIALIGDAFKSVYYGDYSGMPEYNRTLLEAFTHDAGRLANLTWMGERSQEVLIPSHLLTQTADQAYDGILGFTARYYEGTKVGKEAALTRQDLTLDFKLAEDAALKQKEVRAASWTSTLKAPQSGRYMFYLEASGRGKLFINGKQMLSKYNGHRFKTSCEVVLKEGEEYKLKVDCEELNTQMPIRLTWTPPFKGTDDTPAKLAKRSDVAILFVRDDNSSEGRDRKNLNLSDAHIELIKEVCAANPKTILLLGGGSTLALKDIIEGPAALLNVWIAGQGEAQAISNILLGKTNPSGKTAVTFCADESELPALDDYDITHGRSYQYFKGKELFPFGFGLSYTNYQYGKPKMKHRKLQQGDKVEVSAEIRNTGKYAGEEVVQCYLSSPTWQKQGLKQKLVGYQRVSLKPGQAKTVKFCIQEEQLKRWNKDKDEWGLNGNQYNLSVVPCSNQQNAVSFTYR”, the protein production result is “failed”.

For “AAKQDVKVFSEDGTSKVVEILADMTARDLCQLLVYKSHCVDDNSWTLVEHHPHLGLERCLEDHELVVQVESTMASESKFLFRKNYAKYEFFK”, the protein production entry is “failed”.

With “SQNSKTPFPEYFWSWFETYKESSVSERTKLTYKNTFNVLKKHLGGIPIEEMDRRLYRKFIAEFGKDHAKSTVSKFNSLYHACVKDAMYDGDMTKDFIAGTDIVYNRKKTRK”, the protein production entry is “failed”.

With “MNESAGGRTPVPPAAWVFGLSTLIPFFIASGLFCYGPVAIRKSALLGLLAYSAAMVSYFGGVRTGLEIENPSPRWSVLGISLLFPLAGFGLLLGGLKFEAAWQLSGFLLVFLLQWVWDVTDHEGPSWRPRMRTLMTAGAAISLAFALEQALHM”, the protein production entry is recorded as “failed”.

In the case of “EKAVLIGEKEADITFVTWGSQKGPILDVIEDLKEEGISANLLYLKMFSPFPTEFVKNVLSSANLVIDVESNYTAQAAQMIKLYTGIDIKNKILKYNGRHMTEDEILKSAKEILNK”, the protein production result was “not failed”.

Consider “MYYKQLDSLVFTDGESIAKARLASMTDMWFSSDLHLGHKFVASMRGFDDPDEHDEVILSNFENTIGPDDVLWILGDLSSGAHRAEERALGLIAERLGGVVKHLVPGNHDSCHPMYRHAYKRQRRFLEVFDSVQAFQRMKWDDEDVYLSHFPRPGQDHPGMESRFDDLRLRVPLLIHGHLHSQFPMTGPGQVDVGVEAWGLKPAPRELVQLKLWESLSEKILEHHHHHH”, for which the protein production entry is “failed”.

Take “MERQVLLSEPEEAAALYRGLSRQPALSAACLGPEVTTQYGGQYRTVHTEWTQRDLERMENIRFCRQYLVFHDGDSVVFAGPAGNSVETRGELLSRESPSGTMKAVLRKAGGTGPGEEKQFLEVWEKNRKLKSFNLSALEKHGPVYEDDCFGCLSWSHSETHLLYVAEKKRPKAESFFQTKALDVSASDDEIARLKKPDQAIKGDQFVFYEDWGENMVSKSIPVLCVLDVESGNISVLEGVPENVSPGQAFWAPGDAGVVFVGWWHEPFRLGIRFCTNRRSALYYVDLIGGKCELLSDDSLAVSSPRLSPDQCRIVYLQYPSLIPHHQCSQLCLYDWYTKVTSVVVDVVPRQLGENFSGIYCSLLPLGCWSADSQRVVFDSAQRSRQDLFAVDTQVGTVTSLTAGGSGGSWKLLTIDQDLMVAQFSTPSLPPTLKVGFLPSAGKEQSVLWVSLEEAEPIPDIHWGIRVLQPPPEQENVQYAGLDFEAILLQPGSPPDKTQVPMVVMPHGGPHSSFVTAWMLFPAMLCKMGFAVLLVNYRGSTGFGQDSILSLPGNVGHQDVKDVQFAVEQVLQEEHFDASHVALMGGSHGGFISCHLIGQYPETYRACVARNPVINIASMLGSTDIPDWCVVEAGFPFSSDCLPDLSVWAEMLDKSPIRYIPQVKTPLLLMLGQEDRRVPFKQGMEYYRALKTRNVPVRLLLYPKSTHALSEVEVESDSFMNAVLWLRTHLGS”: the protein production result is given as “failed”.

For the sequence “MNQQEVAADYLKYFDDMLAKAADLTKDIKDADKKTVVYGNVSKFSQPHVIAEWWIDKAGGISVTSEAMTKANKESLTYTLEDLLKWNPDVMFVASAAEKKEVLADARLGEITAVKNGAIYIVPRIAHVWGNRTTEQPLTIMWAMNKLYPEIVTLEHHHHHH”, the protein production entry is on record as “not failed”.
